These results are taken from patent US20030144205A1.

A value given as a limit tells only on which side of the number the result lay.

The assay has as its target SV40 large T antigen (pGADT7-SV40 large T antigen) (SV40) (UniProt P03070). Put plainly: cell-based or functional assay.

Chain of SV40 large T antigen (pGADT7-SV40 large T antigen) (SV40) (P03070 86-708 limits assumed): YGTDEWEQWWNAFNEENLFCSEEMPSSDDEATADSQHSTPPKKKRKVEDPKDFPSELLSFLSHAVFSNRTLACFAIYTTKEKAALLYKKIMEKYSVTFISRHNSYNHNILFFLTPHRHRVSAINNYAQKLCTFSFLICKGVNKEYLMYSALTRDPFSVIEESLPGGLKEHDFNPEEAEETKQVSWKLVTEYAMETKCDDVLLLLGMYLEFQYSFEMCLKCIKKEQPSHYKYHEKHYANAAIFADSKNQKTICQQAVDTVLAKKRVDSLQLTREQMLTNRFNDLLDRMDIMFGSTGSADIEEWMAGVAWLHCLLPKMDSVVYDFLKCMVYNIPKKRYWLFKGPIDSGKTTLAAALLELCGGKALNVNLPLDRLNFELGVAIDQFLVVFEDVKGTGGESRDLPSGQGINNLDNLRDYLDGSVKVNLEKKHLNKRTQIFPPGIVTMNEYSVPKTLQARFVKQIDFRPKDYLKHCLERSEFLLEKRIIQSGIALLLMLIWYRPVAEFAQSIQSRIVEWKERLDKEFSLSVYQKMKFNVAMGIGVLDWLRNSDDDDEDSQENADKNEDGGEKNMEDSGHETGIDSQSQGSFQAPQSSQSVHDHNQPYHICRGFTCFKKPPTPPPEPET

“murine p53 (pGBKT7-murine p53) (from UniProt P02340 72-390)”: the fold increase in fluorescence, an indication of yeast growth in selection media (Fluorescence(t40)/Fluorescence(t0)) was over 5 fold.
